Experimental data: US20220145339A1, “METHOD FOR PREPARATION OF PRIMARY AMINE COMPOUNDS” (Max-Planck-Gesellschaft zur Förderung der Wissenschaften …, priority 2018, published 2022)

Experiments:
[1] = aqueous solution, hydrolyzes to oxaloacetate; calculated from data of Mortarino et al., 1996; cited from earlier work
[2] = target: the molecule itself; assay: X-ray crystal structure, self-association (homodimer)
[3] = ISRed enzyme assay coupled with BHAD, NADH oxidation followed at 340 nm; assay type: biochemical, Paracoccus denitrificans DSM 413
Description: The enzyme assay to generate aspartate from β-hydroxyaspartate (catalyzed by the BHAD and ISRed enzymes) was performed at 30° C. in a total volume of 300 μl. The reaction mixture contained 100 mM potassium phosphate pH 7.5, 1 mM BHA, 0.2 mM NADH, 0.57, 2.85, 5.7 or 11.4 μg BHAD enzyme and 0.57 μg ISRed enzyme. The oxidation of NADH was followed at 340 nm on a Cary 60 UV-Vis photospectrometer (Agilent) in quartz cuvettes with a pathlength of 10 mm (Hellma Analytics). BHA (=(2R,3S)-β-hydroxyaspartate) was custom-synthesized by the company NewChem (Newcastle upon Tyne, United Kingdom), and was determined to be >95% pure by NMR analysis.
The enzyme assay to determine the initial reaction velocity of the ISRed enzymes was performed by incubating BHA and the required cofactor NADH together with a fixed amount of the ISRed enzyme and varying amounts of the BHAD enzyme. The initial velocity depends on the amount of the BHAD enzyme present in the reaction mixture, and therefore on the amount of iminosuccinate that is produced by the BHAD enzyme and is available to the ISRed enzyme, as illustrated in FIG. 6. The initial reaction velocity of the ISRed enzyme approaches a maximum in a Michaelis-Menten kinetic fit. The preliminary vmax of the ISRed enzyme determined by this method is 270±10 U mg^−1.

## N=C(CC(=O)O)C(=O)O [iminosuccinate]
[1]
  t1/2: 1.48 s

B1: iminosuccinate reductase from Paracoccus denitrificans DSM 413 (enzyme)
chain: MLVVAEKEIAGLMTPEAAFEAIEAVFASMARRKAYNFPVVREAIGHEDALYGFKGGFDASALVLGLKAGGYWPNNQKHNLINHQSTVFLFDPDTGRVSAAVGGNLLTALRTAAASAVSIKYLAPKGAKVLGMIGAGHQSAFQMRAAANVHRFEKVIGWNPHPEMLSRLADTAAELGLPFEAVELDRLGAEADVIVSITSSFSPLLMNEHVKGPTHIAAMGTDTKGKQELDPALVARARIFTDEVAQSVSIGECQHAIAAGLIREDQVGELGAVVAGDDPGRGDAEVTIFDGTGVGLQDLAVAQAVVELAKHKGVAQEVEI
notes: Recombinant enzyme expressed in E. coli BL21 AI from pET16b and purified on Ni-NTA; It was crystallised, soaked with NAD+, and is described as a homodimer (PDB ID 6QKH); also called ISRed; IRed; not shown: N-terminal His tag and Factor Xa site from vector pET16b
[2]
  binding result: binds

B2: ISRed: imine reductase enzyme from Paracoccus denitrificans DSM 413, amino acid sequence SEQ ID NO: 434, expressed in E. coli (protein)
chain: B1 chain
modifications: Paracoccus denitrificans DSM 413
[3]; 1 mM BHA, 0.2 mM NADH, BHAD and ISRed enzymes, 30° C., potassium phosphate pH 7.5
  reaction catalyzed: catalyzes the conversion of iminosuccinate into L-aspartate
[3]; iminosuccinate synthesized in situ from BHA with varying amounts of BHAD enzyme, cofactor NADH, Michaelis-Menten fit, preliminary, n=1
  vmax: 270±10 U mg^−1
